From publication PMC3205435 (Journal of molecular recognition : JMR, 2011) come the findings set out here.

The series “SEC-MALS” deals with the molecule itself. As to the kind of experiment: SEC-MALS.
The target of series [1] is T1, ERα DB domain (DNA-binding domain) (human, UniProt P03372 176-250). As to the kind of experiment: ITC. A general note: ITC needs no label: the signal is the heat of the interaction.
In series [2] the target is T1, ERα DB domain (DNA-binding domain). As to the kind of experiment: ITC. This is another data set of the same source.

Like-named read-outs stand apart in the source and are kept apart here.

B1: DB domain of ERα pre-treated with EDTA to strip divalent zinc ions (metal-free DB domain) (domain or fragment, human, UniProt P03372 176-250, looked up)
chain: MESAKETRYCAVCNDYASGYHYGVWSCEGCKAFFKRSIQGHNDYMCPATNQCTIDKNRRKSCQACRLRKCYEVGM
By stoichiometry N is commonly meant a count of units in the complex or per binding partner. B1: the “stoichiometry N” value in “SEC-MALS” was found to be 2.

B2: DB domain of ERα reconstituted with divalent ions of cadmium (domain or fragment, human, UniProt P03372 176-250, looked up)
chain: MESAKETRYCAVCNDYASGYHYGVWSCEGCKAFFKRSIQGHNDYMCPATNQCTIDKNRRKSCQACRLRKCYEVGM
Take B2: the “stoichiometry N” value in the series “SEC-MALS” amounted to 2.

B3: DB domain of ERα reconstituted with divalent ions of mercury (domain or fragment, human, UniProt P03372 176-250, looked up)
chain: MESAKETRYCAVCNDYASGYHYGVWSCEGCKAFFKRSIQGHNDYMCPATNQCTIDKNRRKSCQACRLRKCYEVGM
As to B3, the “stoichiometry N” value in the series “SEC-MALS” turned out to be 2.

B4: DB domain of ERα reconstituted with divalent ions of cobalt (domain or fragment, human, UniProt P03372 176-250, looked up)
chain: MESAKETRYCAVCNDYASGYHYGVWSCEGCKAFFKRSIQGHNDYMCPATNQCTIDKNRRKSCQACRLRKCYEVGM
Consider B4, for which, in the series “SEC-MALS”, the “stoichiometry N” value was determined as 2.

B5: DB domain of ERα reconstituted with divalent ions of zinc (domain or fragment, human, UniProt P03372 176-250, looked up)
chain: MESAKETRYCAVCNDYASGYHYGVWSCEGCKAFFKRSIQGHNDYMCPATNQCTIDKNRRKSCQACRLRKCYEVGM
Take B5: in the series “SEC-MALS”, the “stoichiometry N” value was 2.

B6: ERE duplex (dsDNA)
DNA 1: CCCAGGTCACAGTGACCTGCG
DNA 2: CGCAGGTCACTGTGACCTGGG
As usually defined, the Kd is the free concentration of one partner at which half of the binding sites on the other are occupied at equilibrium, for simple one-to-one binding. Low readings indicate higher affinity, high ones lower affinity. For B6, the Kd was 81 ± 2 nM in series [1] and 68 ± 8 nM in series [2].
